Measurements from US20110008323A1.

What was measured:
[1] = molecular target: T1, human Cadherin-11 expressed on 431-D-11 cells (human) (UniProt P55287); assay: cell-based or functional assay
T1 sequence: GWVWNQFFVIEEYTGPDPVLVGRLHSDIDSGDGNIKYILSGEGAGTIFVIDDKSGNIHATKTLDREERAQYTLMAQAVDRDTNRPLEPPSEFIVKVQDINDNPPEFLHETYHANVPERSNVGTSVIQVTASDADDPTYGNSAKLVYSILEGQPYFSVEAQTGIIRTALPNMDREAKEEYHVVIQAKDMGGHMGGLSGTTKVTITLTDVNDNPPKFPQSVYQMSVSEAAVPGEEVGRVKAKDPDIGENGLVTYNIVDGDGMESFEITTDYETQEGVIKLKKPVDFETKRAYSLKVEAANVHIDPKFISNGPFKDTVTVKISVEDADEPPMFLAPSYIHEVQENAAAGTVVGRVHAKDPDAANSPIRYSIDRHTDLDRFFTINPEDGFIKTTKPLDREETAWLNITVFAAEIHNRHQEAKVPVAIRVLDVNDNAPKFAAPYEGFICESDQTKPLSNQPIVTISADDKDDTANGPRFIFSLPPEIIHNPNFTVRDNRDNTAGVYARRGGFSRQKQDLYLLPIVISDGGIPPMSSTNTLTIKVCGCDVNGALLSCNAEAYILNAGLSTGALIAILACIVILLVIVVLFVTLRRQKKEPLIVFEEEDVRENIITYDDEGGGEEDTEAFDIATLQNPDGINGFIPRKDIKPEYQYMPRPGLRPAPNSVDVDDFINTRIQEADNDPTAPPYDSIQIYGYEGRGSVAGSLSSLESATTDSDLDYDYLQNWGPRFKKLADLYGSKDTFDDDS

[2] = molecular target: T1, human Cadherin-11 expressed on 431-D-11 cells (human); assay: cell-based or functional assay; remark: listed apart in the source
[3] = molecular target: T2, Cad-11 EC1 domain peptide (first 33 amino acids of the EC1 domain), specificity ELISA of Example 5 (human); assay: ELISA on EC1 domain peptides (first 33 amino acids)
T2 sequence (peptide): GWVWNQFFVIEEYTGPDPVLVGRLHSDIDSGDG

[4] = molecular target: T3, Cad-8 EC1 domain peptide (region overlapping the G1-G33 region of the Cad-11 EC1 domain) (UniProt P55286); assay: ELISA on EC1 domain peptides, against the Cad-11 peptide
T3 sequence (peptide, conjugated to biotin, looked up): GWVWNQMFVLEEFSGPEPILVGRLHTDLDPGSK

| Molecule | inhibition of Cad-11 mediated cell aggregation [1] [µg/mL] | inhibition of aggregation of Cad-11 expressing 431-D-11 cells at 40 min [1] [µg/mL] | inhibition of aggregation of Cad-11-expressing A-431-D cells (photographs, overnight culture) [2] [µg/mL] | fold higher binding to Cad-11 than to any of the other cadherins tested [3] [fold] | fold lower binding than to Cad-11 [4] [fold] |
| --- | --- | --- | --- | --- | --- |
| human Cad-11-EC1-5-Fc fusion protein (from UniProt P55287 54-609) | 100 | – | – | – | – |
| human Cad-11-EC1-hIgG2-Fc1 fusion protein (Fc fusion) | 3 | 3 | – | – | – |
| H1M1 anti-Cad-11 antibody (produced by hybridoma H1M1, ATCC accession number PTA-9699) (antibody, from a related filing, V domains shown) VH: EVQLQQSGPELVKPGASVKISCKASGYSFTGYFMNWVKQSHGKSLEWIGRINPYTGDTFYNQKFKGKATLTVDKSSSTAHMELLSLSSEDSAVYYCGRLGSRYWYFDVWGAGTTVTVSS VL: DVLMTQTPLSLPVSLGDQASISCRSSQSIIHSNGNTYLEWYLQKPGQSPKLLIYKVSNRFSGVPDRFTGSGSGTDFTLKISRVEAEDLGVYYCFQGSHVPWTFGGGTKLEIK | – | – | 30 | > 100 | 365 |
